Reference: the domain aggregation screens of Martell et al. (2025)

Assay: soluble fraction after stress (log2 fold change); higher = more stays soluble; pooled small domains, quantitative proteomics
Details: stress: 50 degC
In short: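 The stress applied to every library was 50°C. These custom libraries of small protein domains were pooled and measured at high throughput with quantitative proteomics as the read-out. Aggregation propensity is expressed as the base-two logarithm of the fold change in how much of each protein remains soluble. The higher the value, the more of that protein stays in solution.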

| Sequence | soluble fraction (log2) |
| --- | --- |
| HMVVMKGKVKWFNKNKGYGFIITDDNKEYFVHWKSIVTNSPRELKVLEQDELVTFDLMETDKGIQAINII | -2.14 |
| HMVVPELNLAQQDVLRALRQRGRATADHLSVDTHRPVSEVMGILLGLEIAEVLYRVEGGWFVPKTAR | -0.653 |
| HMVVSDKIAFSSFLKSVEDGRVVEVEITGNDIRGILSDGTVFNTYAPNDPNLVEKLTSKGVNITALPKE | 0.19 |
| HMVVYQRVHDEILQALKDNVYPVGTLLPPEPELERIYSVSRTTVRRAIAKLSEEGYVQVRQGYGTMVLKN | -0.576 |
| HMWGAYHDGQVVKFPKKVTVYVIDGQYKRPLANEFVLKFLNYKTSDIIIDKDGNLNNYKNGAVVEH | -2.69 |
| HMWMQKILGNYIAARRKELGMTQANLAEKIHVTDKAVSRWERGVGLPDIENLEALAKALEVSLVSLMQGKT | -1.59 |
| HMWNGIVDAGKARQHLMNLSQLGVGRRAVAAASDVAETVLMDIRSGTKTRIRARTERQILAVTPEMA | -2.23 |
| HMWNTADDIKEAIWKLIQSEDPKKPYSDLKISQLLLEKEMKISRRTVAKYRKEMGILGTYSRK | -0.347 |
| HMWQPIKLDRGDWQNSLQVGDRVFVRGIPRPVEILSAVDEENNIEVLMGTMRAKIPVYQLDKPAENFIDTT | -0.15 |
| HMWQVVEVDYGTFMSMTEDGQVGRVEIQEQENLILFTDQEETTVYKTAMVDDPDLTARLHDAGIPFYGQE | -0.64 |
| HMWSGEPFLDELRHADTLLETDPEAALAEYRALADKGSAAAMMALGNAYASGSHVARDEGEAEHWYRRAA | 0.0547 |
| HMWSLLVILQLREGGQRFSQLQRAIPDISQRMLTQTLRKLERDGLVSRKVTPSTPPRVDYAITELGH | -1.04 |
| HMWSQEPEYRPLYNSMDGFDAGQVVEMLQQSRIDYKVEPNSGALLVRSEDLADARLRLASAGISP | -0.0156 |
| HMYAEVTITIEKGMTSDSVSKLLYKAGIVDDAKEFNNYIIKAGKSTKILIGEFTIQKGASYDDIIKIIA | -1.37 |
| HMYAGTVTQVKNNKVMLEFDGETVNVGDQFFILNSDGKKVAIVEITAAKNKKALANVLKGKAVVDGTTQAK | -0.111 |
| HMYAVDTIHKGTITEMTDKGAVVSLGDNIDGFAPARQLVKEDGTTLKLGDTADFKVIEFSKATKRITLSH | 0.286 |
| HMYAVQKGDTLKKIADQFGISVDTIKWANDMKGDALSIDQELKIP | 0.057 |
| HMYDAEAINKFFDIENWDFGETFYFQELSAYIMNQLSPKLVTILIVPRQTTQAFGSLFEIKSEPDEIFAS | -0.107 |
| HMYDDEELDVLAHRPIESYTDAELAMLREVAETLLETDYEGWLKSLSMRGILLPPEILQLVT | -0.049 |
| HMYDDLEPFDANGRLRWSDKELILAFGRHRGVTLQTLELNDPGYLRWLLSGNGPLEQQDRKRLEDILES | -1.27 |
| HMYDEKTLRKAVLDYVRDNDDGRLDLMKIDSYLTSRYGNIDYAALGYNRLSMFISSFPELRRNSNYVTLRK | -0.164 |

| Sequence | soluble fraction (log2) |
| --- | --- |
| HMYEDNERNLYSVVINFLNEHKIKISREAINLVINRSSGDKHNLKQELNKILNYSFSNKNITYETIEKLSN | -0.585 |
| HMYEDNERSLVPIVQNFLKEKKILLSNQSINLIVQRSGGDRINLYNELQKIESFSKNQKKIDIGDIIKLTN | -0.286 |
| HMYEDSNQSLNFFAIKFIKEKNIKISQETTNLIVERARGDRGNLINELQKLEALSLTRKKITQEDVFNLTN | -0.774 |
| HMYEGLILINKYDSLVSAKLETNKIKSLGLFFEDMEEKIAVFSGPFKNNDINLKLDFLIRNGYLDAKIY | -4.51 |
| HMYEIEDIKEKLLDLLANSKTGFSGLEISNRLGINRITVSKYLNIFSAEGLIKQKNIGNVIIWFVEDGIE | -0.203 |
| HMYEVDGLGIRIAQLRKKQDLTQEAFARTLGVSPQAVSKWETGIGYPDITLLPQIAKELGVSIDQLFGRN | 0.065 |
| HMYFGDADGNKKVDAADALYLKRHLADWEDYRELPQKTNVSWMDEASPANLMILERHIAGWKDYEMLPYT | -0.293 |
| HMYFMDEETWESKKTLLNDWYEANPEYADRRAISDGLFKIGDLQPDFRRRHWGSIGVIFADIPNSPMG | -0.915 |
| HMYGHKLDSYESYVVSELRRWPFLSAPQIHDRLKEHFSDLPLVTPKTVFNFVNRLRLTHSLPKE | -3.13 |
| HMYGLSFLIGFTVVDRTYGDIGKVTAIDDSTVNTLMAVGDRLIPAQEAFITKIDNTKKIIYTQLPEGLL | 0.177 |
| HMYGTQTVNRGAVQPGMLVKHKDSTWTASANARGRLYLHRGVEMTYTRDLLVEVYLNGLGNGL | 0.102 |
| HMYHADLIGLRVETAAGEKLGTVKAVHNFGAGDVIEITGAEDKDGLMVPFTAEVVPEVDIENGRIVVS | -0.331 |
| HMYHKKEKAQAANIEERIMILLSDGKHHHITEIKAIYVDEVITLNILEEMLAEEKVIIEGDMIMLVE | -3 |
| HMYKLTTQRRAILDVIIENHDKHLNPEEIYDIVKEKYPEIGIATVYRTLQLLEKLNIIYRLNFDDGYNRYE | -2.3 |
| HMYKLTYVVDGEVYLEETVSYGSKIAAAPAPEKEGYTFSGWEGLPEVMPAKDVTVSGSFTVN | -0.405 |
| HMYKMKDRIKKIMEMQRTTQQDFADQLKIAPATLSSIFTGRTRPTLAIVDAIKSRFPQISTDWLMFGKGDM | -0.219 |
| HMYKNAFITYDNNLYYLGSDSKMAIGWQSIGGNTYYFRNWGGMITGKQVIDGKTYVFDEDGKLVQSPD | -1.12 |
| HMYLNYQTIGKRIRLLRKQQHLTQMTLAEMVDKSPTYISLVENGQKGPSLETLIDVANALKVTMDVLLAEY | -4.39 |
| HMYLPPYMEVRAVMILDGKPMALMYIEGEGDGLIVSPGYKFDNGKGKVVSITPTKVVVLWAGTKMELG | -2.14 |
| HMYLYHDLSDEAKAMGDEYVSVEHLVLALIRYPNNAVKELFREFGITRERFLQVLSTIRGNQRVTSDNPEA | 0.0309 |
| HMYMFSGQRLKSLRKEKKMSQEKLGSLLNISKVAVSNWENAKSFPTMDNLNELAKVLEVEPHYF | -1.16 |

| Sequence | soluble fraction (log2) |
| --- | --- |
| HMYMKLSVKDAALFLSVSPETVYRWVKQEEIPYHTVNDQLRFNRAELLEWATARSLEVSPDLFVP | -3.04 |
| HMYMWQVEDLIRANGLDIERIKDSIIRPYELDEERKRELTQWYEDLIDMMRREGVAQSGHLQIN | -2.45 |
| HMYNMEELAGHTEKVYNSLPEELKLVIKLREIENMSYDEISLKTGMPIGTVRSRLHRAREILVDSLKDY | -0.367 |
| HMYQNRLFYTLKTGETVADLSKSQDINLSTIWSLNKHLYSSESEMMKAAPGQQIILPLKKLP | -0.105 |
| HMYQPLRDVIFETLRKAIVSGDIKPGERLMEVSLANQMGVSRTPVREAIRRLEAEGLVTMTPRKGTHVAE | -0.399 |
| HMYQRLPFSFANRYKMVLESQHPERAPILYYVEPLKSAAIIEVSRVVKNGFTPQAITLDEFDKKLTDAYQR | -0.908 |
| HMYRLSPSWRIVERDDGFEIYGGDDARFQLDPSPLVSRLAAGDAVTRDGLDPTGAIEFEQLLSAGMIRPEI | -0.124 |
| HMYRYTTFKVKEADTLLPFIQKSLNGISHNRAKAILTGGGVLVDKKITRAYDFALRPGMTVEISKSKP | -0.103 |
| HMYRYYSTLRPITPGAYPKPADNPAMLIHNFDNREYVGKIGREAWGYVEYNNPLTKEQIEAFDFVAE | 0.0677 |
| HMYSDIERAMTNAPEQFANKQAVLDFLNKNRIKKSEVDDYRIASLLKLYDDASPISKTEIISQVRT | 0.149 |
| HMYSDQRMEIFLEHLPDFIEQLSHKHVTRQMVWEDYRMIYPDGYGKSQFFFHLAQNLKAQKP | -3.3 |
| HMYSYSFTSSEGSTFEGQLIRVEESQVTILRYADQKEFSIPKSRFIEADQVYFERWAIENPQL | -4.33 |
| HMYSYSGSVSNTHDVPVSVVLKDAEGVAIASWDLQAKQSLNISAKDIATSSGTIEITGDGVSETKTVTFTK | 0.391 |
| HMYTVKELSRLTGLTPRTLRYYDAIGLLSPARNRDNDYRLYGGAEVDRLQEILLYREMGLPLEEIGRILD | -1.45 |
| HMYTVQPHESLWSIAASQLGDGHRFTEIVDLNQELLGGKANFIKPGWVLQIP | -0.299 |
| HMYTVVVGDSPSLIADKTGVPLKELTAMNPNLSDNFLPGKQLL | 0.000825 |
| HMYVEVPNFIGVPLVKVQSELASLGLVFNKSVVYQTSPYLKGNILDQRPLPGEVVPLNTEMSFTVSSGPA | 0.453 |
| HMYVKIAADAAMPYTIKRVVTDYSSAALDAAYDGSLPKWLTISSSTKDAGSGLYRHEIIYTVTAHPE | -0.68 |
| HMYVYEPGEFAVRGSILDVYSYASEFPYRIDFFGDDVESIRTFEVQTQLSKEAKDRVSIVPDTEQ | -0.181 |
| HMYYNDEELDGYRGTPSDAYSDNAVEEFREVLYTLREDEVSGWVRSLQLRGIFLPDAIKDETFLI | -1.59 |
| HMYYTAPDGRKREILDAALRLIAAGGPDSLTYRRVADEAGVPLGSLTYYFEAREDLIREAFRLYIAEASR | -3.04 |
